{
  "source": "patent US20160361280A1",
  "key": {"[1]": {"molecular_target": "hCD1d/β-2-microglobulin refolded with ThrCer 2 (human) (UniProt P15813)", "assay": "SPR (BIAcore), equilibrium binding; TCR injected over immobilised biotinylated hCD1d-lipid"}, "[2]": {"molecular_target": "hCD1d/β-2-microglobulin refolded with α-GalCer 1 (human) (UniProt P15813)", "assay": "SPR (BIAcore), equilibrium binding; TCR injected over immobilised biotinylated hCD1d-lipid"}, "[3]": {"molecular_target": "hCD1d/β-2-microglobulin refolded with α-GalCer thioamide 6 (human) (UniProt P15813)", "assay": "SPR (BIAcore), equilibrium binding; TCR injected over immobilised biotinylated hCD1d-lipid"}, "[4]": {"molecular_target": "hCD1d/β-2-microglobulin refolded with ThrCer thioamide 9 (human) (UniProt P15813)", "assay": "SPR (BIAcore), equilibrium binding; TCR injected over immobilised biotinylated hCD1d-lipid"}, "[5]": {"molecular_target": "hCD1d/β-2-microglobulin refolded with α-GalCer carbamate 8 (human) (UniProt P15813)", "assay": "SPR (BIAcore), equilibrium binding; TCR injected over immobilised biotinylated hCD1d-lipid"}, "[6]": {"molecular_target": "hCD1d/β-2-microglobulin refolded with ThrCer carbamate 11 (human) (UniProt P15813)", "assay": "SPR (BIAcore), equilibrium binding; TCR injected over immobilised biotinylated hCD1d-lipid"}, "[7]": {"molecular_target": "hCD1d/β-2-microglobulin refolded with ThrCer 2 (human) (UniProt P15813)", "assay": "SPR (BIAcore), kinetics; TCR injected over immobilised biotinylated hCD1d-lipid"}, "[8]": {"molecular_target": "hCD1d/β-2-microglobulin refolded with α-GalCer 1 (human) (UniProt P15813)", "assay": "SPR (BIAcore), kinetics; TCR injected over immobilised biotinylated hCD1d-lipid"}, "[9]": {"molecular_target": "hCD1d/β-2-microglobulin refolded with α-GalCer thioamide 6 (human) (UniProt P15813)", "assay": "SPR (BIAcore), kinetics; TCR injected over immobilised biotinylated hCD1d-lipid"}, "[10]": {"molecular_target": "hCD1d/β-2-microglobulin refolded with ThrCer thioamide 9 (human) (UniProt P15813)", "assay": "SPR (BIAcore), kinetics; TCR injected over immobilised biotinylated hCD1d-lipid"}, "[11]": {"molecular_target": "hCD1d/β-2-microglobulin refolded with α-GalCer carbamate 8 (human) (UniProt P15813)", "assay": "SPR (BIAcore), kinetics; TCR injected over immobilised biotinylated hCD1d-lipid"}, "[12]": {"molecular_target": "hCD1d/β-2-microglobulin refolded with ThrCer carbamate 11 (human) (UniProt P15813)", "assay": "SPR (BIAcore), kinetics; TCR injected over immobilised biotinylated hCD1d-lipid"}, "[13]": {"molecular_target": "hCD1d/β-2-microglobulin refolded with ThrCer 2 (human) (UniProt P15813)", "assay": "SPR (BIAcore); calculated from experimental koff and Kd"}, "[14]": {"molecular_target": "hCD1d/β-2-microglobulin refolded with α-GalCer 1 (human) (UniProt P15813)", "assay": "SPR (BIAcore); calculated from experimental koff and Kd"}, "[15]": {"molecular_target": "hCD1d/β-2-microglobulin refolded with α-GalCer thioamide 6 (human) (UniProt P15813)", "assay": "SPR (BIAcore); calculated from experimental koff and Kd"}, "[16]": {"molecular_target": "hCD1d/β-2-microglobulin refolded with ThrCer thioamide 9 (human) (UniProt P15813)", "assay": "SPR (BIAcore); calculated from experimental koff and Kd"}, "[17]": {"molecular_target": "hCD1d/β-2-microglobulin refolded with α-GalCer carbamate 8 (human) (UniProt P15813)", "assay": "SPR (BIAcore); calculated from experimental koff and Kd"}, "[18]": {"molecular_target": "hCD1d/β-2-microglobulin refolded with ThrCer carbamate 11 (human) (UniProt P15813)", "assay": "SPR (BIAcore); calculated from experimental koff and Kd"}},
  "data": [
    {"substance": "soluble human iNKT cell T cell receptor (Vα24/Vβ11 heterodimer) (TCR)", "values": [
      {"measurement": "Kd", "setting": "[1]", "value": 4.57, "unit": "µM"},
      {"measurement": "Kd", "setting": "[2]", "value": 2.19, "unit": "µM"},
      {"measurement": "Kd", "setting": "[3]", "value": 4.2, "unit": "µM"},
      {"measurement": "Kd", "setting": "[4]", "value": 36.1, "unit": "µM"},
      {"measurement": "Kd", "setting": "[5]", "value": 1.72, "unit": "µM"},
      {"measurement": "Kd", "setting": "[6]", "value": 4.6, "unit": "µM"},
      {"measurement": "koff", "setting": "[7]", "value": 1.18, "unit": "s⁻¹"},
      {"measurement": "koff", "setting": "[8]", "value": 0.565, "unit": "s⁻¹"},
      {"measurement": "koff", "setting": "[9]", "value": 0.537, "unit": "s⁻¹"},
      {"measurement": "koff", "setting": "[10]", "value": 1.88, "unit": "s⁻¹"},
      {"measurement": "koff", "setting": "[11]", "value": 0.919, "unit": "s⁻¹"},
      {"measurement": "koff", "setting": "[12]", "value": 1.19, "unit": "s⁻¹"},
      {"measurement": "kon", "setting": "[13]", "value": 258000, "unit": "M⁻¹ s⁻¹"},
      {"measurement": "kon", "setting": "[14]", "value": 258000, "unit": "M⁻¹ s⁻¹"},
      {"measurement": "kon", "setting": "[15]", "value": 128000, "unit": "M⁻¹ s⁻¹"},
      {"measurement": "kon", "setting": "[16]", "value": 520000, "unit": "M⁻¹ s⁻¹"},
      {"measurement": "kon", "setting": "[17]", "value": 534000, "unit": "M⁻¹ s⁻¹"},
      {"measurement": "kon", "setting": "[18]", "value": 259000, "unit": "M⁻¹ s⁻¹"}
    ]}
  ]
}
